For experiment [1], the target named is Human FcRn with human β2M on MDCK II clone 15 cells (human) (UniProt P55899). As to the kind of experiment: cell-based or functional assay.
The target is the same in experiment [2].

Chain of Human FcRn with human β2M on MDCK II clone 15 cells (human) (P55899 24-365, chain 1 of 2): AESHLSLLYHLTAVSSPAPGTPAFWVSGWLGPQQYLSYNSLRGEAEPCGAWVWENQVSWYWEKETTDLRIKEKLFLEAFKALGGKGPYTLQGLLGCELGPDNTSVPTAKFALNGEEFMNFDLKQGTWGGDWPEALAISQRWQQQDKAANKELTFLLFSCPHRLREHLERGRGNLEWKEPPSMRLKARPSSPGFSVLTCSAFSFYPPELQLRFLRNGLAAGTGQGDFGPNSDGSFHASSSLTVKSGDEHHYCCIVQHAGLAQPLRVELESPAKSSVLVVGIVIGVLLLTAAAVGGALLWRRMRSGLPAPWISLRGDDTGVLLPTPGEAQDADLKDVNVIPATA
Chain of Human FcRn with human β2M on MDCK II clone 15 cells (human) (P61769 21-119, chain 2 of 2, further chain): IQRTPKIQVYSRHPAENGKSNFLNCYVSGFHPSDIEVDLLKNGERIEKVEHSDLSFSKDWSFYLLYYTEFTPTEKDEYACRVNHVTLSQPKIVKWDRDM
Chain of IgG4 Fc IgM tp L309 (P01861 other isoform, or with tags, fused parts or gaps limits assumed): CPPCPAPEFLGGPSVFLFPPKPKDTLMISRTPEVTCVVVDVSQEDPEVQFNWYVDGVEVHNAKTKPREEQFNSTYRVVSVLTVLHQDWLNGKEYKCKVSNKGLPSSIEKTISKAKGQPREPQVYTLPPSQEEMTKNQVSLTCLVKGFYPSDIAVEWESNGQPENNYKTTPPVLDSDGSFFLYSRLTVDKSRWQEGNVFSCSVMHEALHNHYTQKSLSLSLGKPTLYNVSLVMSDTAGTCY

As to IgG1 IgM tail-piece, H310L (Fc fusion), the Blockade of IgG recycling (% inhibition at 100 µg/ml) in experiment [1] was 45.

In experiment [2], “IgG1 Fc IgM tp L309 (from UniProt P0DOX5 228-449) (Fc fusion)” returned an EC50, inhibition of FcRn mediated IgG recycling (cell lysates), percentage inhibition relative to the positive control; blocked ligand biotinylated human IgG [upper panel (cell lysates] of 0.37 µg/mL. In experiment [1], this substance had a Blockade of IgG intracellular uptake EC50 of 4.4 µg/mL and a Blockade of IgG recycling EC50 of 0.33 µg/mL.

In experiment [1], “IgG4 Fc IgM tp L309 (from UniProt P01861 106-325) (Fc fusion)” had a Blockade of IgG intracellular uptake EC50 of 5.9 µg/mL and a Blockade of IgG recycling EC50 of 1 µg/mL.

In the case of IgG4 IgM tail-piece, V308P (Fc fusion), in experiment [1], the Blockade of IgG intracellular uptake EC50 amounted to 0.51 µg/mL and the Blockade of IgG recycling EC50 came to 0.42 µg/mL.

For the substance IgG4 IgM tail-piece, V308F (Fc fusion), in experiment [1], the Blockade of IgG intracellular uptake EC50 turned out to be 0.42 µg/mL and the Blockade of IgG recycling EC50 came to 0.56 µg/mL.

In experiment [1], IgG1 IgM tail-piece, V308F (Fc fusion) yielded a Blockade of IgG intracellular uptake EC50 of 0.12 µg/mL and a Blockade of IgG recycling EC50 of 0.073 µg/mL.

In experiment [1], IgG1 IgM tail-piece, V308P (Fc fusion) displayed a Blockade of IgG intracellular uptake EC50 of 0.34 µg/mL and a Blockade of IgG recycling EC50 of 0.55 µg/mL.

On to IgG1 IgM tail-piece, T307A (Fc fusion), for which, in experiment [1], the Blockade of IgG intracellular uptake EC50 stood at 0.54 µg/mL and the Blockade of IgG recycling EC50 was 0.35 µg/mL.

As to IgG4 IgM tail-piece, T307A (Fc fusion), the Blockade of IgG intracellular uptake EC50 in experiment [1] amounted to 0.5 µg/mL.

(Values after patent US20170088603A1.)
